According to patent publication US20220119534A1 (DRAGONFLY THERAPEUTICS, published 2022):
Where “and” joins values, the source holds several entries; their conditions need not be identical. Equal values may be shown once.

What was measured:
[1] = target: T1, Human CLEC12A expressed on cells (Ba/F3-hCLEC12A, PL21, HL60) (human, UniProt Q5QGZ9 1-265); test: cell-based or functional assay
T1 sequence: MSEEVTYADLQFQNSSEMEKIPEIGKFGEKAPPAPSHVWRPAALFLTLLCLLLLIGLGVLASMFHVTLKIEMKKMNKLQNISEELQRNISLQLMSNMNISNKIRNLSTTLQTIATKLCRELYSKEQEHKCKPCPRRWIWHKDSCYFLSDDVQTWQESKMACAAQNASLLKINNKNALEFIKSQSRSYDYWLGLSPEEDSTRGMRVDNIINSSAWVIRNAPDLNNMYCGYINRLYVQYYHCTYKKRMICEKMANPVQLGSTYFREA

Human CD16b (FcγRIIIb) = target: T2, Human CD16b (FcγRIIIb) (human, UniProt O75015 17-200, limits assumed, biotinylated); test: SPR 25C, average
T2 construct: Bought recombinant receptor; also called hFcγRIIIb; CD16b (FcγR3b)

Human CLEC12A-K244Q-His = target: T3, Human CLEC12A-K244Q-His (human, UniProt Q5QGZ9 65-265); test: SPR, two-state fit (ka1)
T3 construct: also called hCLEC12A (Q244); CLEC12A (Q244); not shown: His tag
T3 chain: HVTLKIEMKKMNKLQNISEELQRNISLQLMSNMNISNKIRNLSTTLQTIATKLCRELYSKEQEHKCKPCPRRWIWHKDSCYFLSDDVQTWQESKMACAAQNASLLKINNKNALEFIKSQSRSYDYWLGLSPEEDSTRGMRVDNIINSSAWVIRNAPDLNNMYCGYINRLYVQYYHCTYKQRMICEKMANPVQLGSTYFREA

[2] = target: T4, Human CLEC12A-His (recombinant, K244 WT) (human, UniProt Q5QGZ9 65-265); test: SPR, two-state fit (ka1)
T4 construct: Made in house (Dragonfly Tx); also called hCLEC12A; hCLEC12A-His; not shown: His tag
T4 sequence: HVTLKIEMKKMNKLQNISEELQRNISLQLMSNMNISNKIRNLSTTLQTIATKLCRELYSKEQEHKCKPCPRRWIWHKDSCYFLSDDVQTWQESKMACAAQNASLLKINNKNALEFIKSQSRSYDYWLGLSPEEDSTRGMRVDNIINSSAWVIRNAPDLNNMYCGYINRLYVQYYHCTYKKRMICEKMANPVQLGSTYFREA

[3] = target: T4, Human CLEC12A-His (recombinant, K244 WT); test: SPR, two-state fit (kd1); after forced oxidation
Experimental: Briefly, human Fc specific antibodies were covalently immobilized at a density ˜8000-10000 resonance units (RU) on carboxy methyl dextran matrix of a CM5 biosensor chip via amine-coupling chemistry to create an anti-hFc IgG chip. […] Association was monitored for 300 seconds and dissociation was monitored for 600 seconds. Surfaces were regenerated between cycles with three pulses of 10 mM glycine-HCl, pH 1.7 injected for 20 seconds at 100 μl/min. HBS-EP+ (1×) with 0.1 mg/ml BSA was used as running buffer throughout the experiment. Experiments were performed at physiological temperature of 37° C. To obtain kinetic rate constants and overall binding affinity, double-referenced data were fit to a two-state kinetic model using Biacore 8K Insight Evaluation software (Cytiva).

Human CD16b = target: T5, Human CD16b (human, UniProt O75015 17-200, limits assumed, biotinylated); test: SPR, summary of FcγR affinities
T5 construct: Bought recombinant receptor; also called hFcγRIIIb

Human CD32b = target: T6, Human CD32b (human, UniProt P31994 46-217, limits assumed, biotinylated); test: SPR, summary of FcγR affinities
T6 construct: Bought recombinant receptor; also called hFcγRIIb
T6 sequence (looked up): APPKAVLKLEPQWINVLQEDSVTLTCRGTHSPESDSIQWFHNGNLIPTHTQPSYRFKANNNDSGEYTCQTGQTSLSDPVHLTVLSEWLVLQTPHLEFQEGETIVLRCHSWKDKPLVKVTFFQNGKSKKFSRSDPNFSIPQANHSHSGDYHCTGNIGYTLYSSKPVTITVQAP

Cynomolgus CD16 = target: T7, Cynomolgus CD16 (cynomolgus monkey, UniProt Q8SPW2 17-208, biotinylated); test: SPR, summary of FcγR affinities
T7 construct: Bought recombinant receptor; also called cFcγRIII; Cynomolgus FcγRIII

Human CD32a H131 = target: T8, Human CD32a H131 (human, UniProt P12318 36-218, limits assumed, biotinylated); test: SPR, summary of FcγR affinities
T8 construct: Bought recombinant receptor; also called hFcγRIIa H131
T8 sequence (looked up): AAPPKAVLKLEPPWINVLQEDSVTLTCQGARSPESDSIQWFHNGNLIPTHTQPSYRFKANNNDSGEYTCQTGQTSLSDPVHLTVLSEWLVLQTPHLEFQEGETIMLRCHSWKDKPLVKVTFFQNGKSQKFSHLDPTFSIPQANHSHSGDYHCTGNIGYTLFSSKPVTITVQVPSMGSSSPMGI

Human CD16a V158 = target: T9, Human CD16a V158 (human, UniProt P08637 17-208, biotinylated); test: SPR, summary of FcγR affinities
T9 construct: Bought recombinant receptor; also called hCD16a (V158); hFcγRIIIa V158

Human CD64 = target: T10, Human CD64 (human, UniProt P12314 16-288, biotinylated); test: SPR, summary of FcγR affinities
T10 construct: Bought recombinant receptor; also called hFcγRI; Human CD64 (FcγRI)

Human CD32a R131 = target: T11, Human CD32a R131 (human, UniProt P12318 36-218, limits assumed, biotinylated); test: SPR, summary of FcγR affinities
T11 construct: Bought recombinant receptor; also called hFcγRIIa R131
T11 sequence (looked up): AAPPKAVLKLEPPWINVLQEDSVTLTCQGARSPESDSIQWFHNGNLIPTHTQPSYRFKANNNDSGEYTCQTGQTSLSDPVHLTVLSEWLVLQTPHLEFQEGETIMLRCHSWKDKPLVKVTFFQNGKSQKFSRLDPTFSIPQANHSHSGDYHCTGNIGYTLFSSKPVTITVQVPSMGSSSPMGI

Cynomolgus CD64 = target: T12, Cynomolgus CD64 (cynomolgus monkey, UniProt A0A2K5U901 33-309, Probably biotinylated for capture, as in the sister examples (p-1094).); test: SPR, summary of FcγR affinities
T12 construct: Bought recombinant receptor; also called cFcγRI; Cynomolgus CD64 (FcγRI); not shown: The vendor's biotinylation and purification tag

Human CD16a F158 = target: T13, Human CD16a F158 (human, UniProt P08637 17-208, biotinylated); test: SPR, summary of FcγR affinities
T13 construct: Bought recombinant receptor; also called hFcγRIIIa F158

mFc-hNKG2D = target: T14, mFc-hNKG2D (human, UniProt P26718 73-216); test: SPR, 37 C, mFc-hNKG2D captured, steady state fit
T14 construct: extracellular domain; Recombinant mFc-tagged NKG2D dimer, made in house; also called human NKG2D; not shown: mouse Fc tag
T14 sequence (looked up): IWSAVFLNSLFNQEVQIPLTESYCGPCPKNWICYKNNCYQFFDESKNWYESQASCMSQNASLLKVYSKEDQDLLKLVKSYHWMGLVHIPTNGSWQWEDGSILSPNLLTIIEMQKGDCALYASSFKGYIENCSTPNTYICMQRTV

T12 sequence (A0A2K5U901 entry or part of it limits assumed): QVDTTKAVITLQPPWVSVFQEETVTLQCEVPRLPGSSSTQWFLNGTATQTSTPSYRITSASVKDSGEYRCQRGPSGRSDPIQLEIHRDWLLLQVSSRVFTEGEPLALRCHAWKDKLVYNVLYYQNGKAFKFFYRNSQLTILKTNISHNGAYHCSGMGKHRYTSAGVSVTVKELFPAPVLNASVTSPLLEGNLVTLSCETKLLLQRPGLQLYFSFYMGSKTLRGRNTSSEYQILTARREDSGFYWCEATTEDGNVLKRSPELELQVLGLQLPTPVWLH
T13 sequence (P08637 17-208 limits assumed): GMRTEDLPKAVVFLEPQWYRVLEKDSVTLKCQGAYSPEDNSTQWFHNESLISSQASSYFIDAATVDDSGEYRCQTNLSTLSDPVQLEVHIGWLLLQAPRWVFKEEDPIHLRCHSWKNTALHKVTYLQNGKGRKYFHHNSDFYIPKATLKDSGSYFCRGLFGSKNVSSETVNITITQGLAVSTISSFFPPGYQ
T2 sequence (O75015 17-200 limits assumed): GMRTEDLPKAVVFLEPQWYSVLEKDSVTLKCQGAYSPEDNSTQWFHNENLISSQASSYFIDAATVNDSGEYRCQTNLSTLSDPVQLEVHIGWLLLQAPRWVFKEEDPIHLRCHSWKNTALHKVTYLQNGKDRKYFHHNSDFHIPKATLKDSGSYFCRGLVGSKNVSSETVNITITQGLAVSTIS
T5 sequence (O75015 17-200 limits assumed): as above
T9 sequence (P08637 17-208 F176V limits assumed): as the sequence (P08637 17-208 limits assumed) above, with F160V counted along it
T7 sequence (Q8SPW2 17-208 limits assumed): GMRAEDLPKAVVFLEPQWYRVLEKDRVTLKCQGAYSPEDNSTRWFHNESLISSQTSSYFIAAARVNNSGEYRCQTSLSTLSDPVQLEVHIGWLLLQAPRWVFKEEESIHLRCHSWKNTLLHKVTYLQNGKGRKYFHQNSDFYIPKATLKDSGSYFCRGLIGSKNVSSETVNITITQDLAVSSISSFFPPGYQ
T10 sequence (P12314 16-288 limits assumed): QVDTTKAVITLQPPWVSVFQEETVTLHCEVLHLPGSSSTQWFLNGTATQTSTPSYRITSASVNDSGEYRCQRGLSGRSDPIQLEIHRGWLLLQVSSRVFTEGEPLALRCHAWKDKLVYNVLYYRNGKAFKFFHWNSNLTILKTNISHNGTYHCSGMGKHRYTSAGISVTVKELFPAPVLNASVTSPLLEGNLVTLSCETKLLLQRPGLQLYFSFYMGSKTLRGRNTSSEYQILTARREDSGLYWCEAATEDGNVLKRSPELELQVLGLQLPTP

Kd (Human CD16b (FcγRIIIb)) [nM]	kon (Human CLEC12A-K244Q-His) [M⁻¹ s⁻¹]	kon [2] [M⁻¹ s⁻¹]	koff [3] [s⁻¹]	Kd (Human CD16b) [nM]	Kd (Human CD32b) [nM]	Kd (Cynomolgus CD16) [nM]	Kd (Human CD32a H131) [nM]	Kd (Human CD16a V158) [nM]	Kd (Human CD64) [nM]	Kd (Human CD32a R131) [nM]	Kd (Cynomolgus CD64) [nM]	Kd (Human CD16a F158) [nM]	Kd (mFc-hNKG2D)	Binder	EC50, primary NK mediated cytotoxic killing of PL21 cells [1] [nM]
8900	9.7e+06	1.63e+07	0.0481											AB0089 TriNKET (bispecific antibody, human IgG1, kappa, F3' format heterodimer of three chains; human IgG1 Fc with EW-RVT and Y349C/S354C mutations; also called AB0089 Lot AB0089-002; CLEC12A TriNKET AB0089) QLQLQESGPGLVKPSETLSLTCTVSGFSLTNYGLHWIRQPPGKCLEWIGVIWVGGATDYNPSLKSRVTISVDTSKNQFSLKLSSVQAADTAVYYCAKGDYGDTLDYWGQGTLVTVSSGGGGSGGGGSGGGGSGGGGSDIQMTQSPSSLSASVGDRVTITCHASQNINFWLSWYQQKPGKAPKLLIYEASNLHTGVPSRFSGSGSGTDFTLTISSLQPEDFATYYCQQSHSYPLTFGCGTKLEIKGSDKTHTCPPCPAPELLGGPSVFLFPPKPKDTLMISRTPEVTCVVVDVSHEDPEVKFNWYVDGVEVHNAKTKPREEQYNSTYRVVSVLTVLHQDWLNGKEYKCKVSNKALPAPIEKTISKAKGQPREPRVYTLPPCRDELTKNQVSLTCLVKGFYPSDIAVEWESNGQPENNYKTTPPVLVSDGSFTLYSKLTVDKSRWQQGNVFSCSVMHEALHNHYTQKSLSLSPG heavy: EVQLVESGGGLVKPGGSLRLSCAASGFTFSSYSMNWVRQAPGKGLEWVSSISSSSSYIYYADSVKGRFTISRDNAKNSLYLQMNSLRAEDTAVYYCARGAPIGAAAGWFDPWGQGTLVTVSSASTKGPSVFPLAPSSKSTSGGTAALGCLVKDYFPEPVTVSWNSGALTSGVHTFPAVLQSSGLYSLSSVVTVPSSSLGTQTYICNVNHKPSNTKVDKKVEPKSCDKTHTCPPCPAPELLGGPSVFLFPPKPKDTLMISRTPEVTCVVVDVSHEDPEVKFNWYVDGVEVHNAKTKPREEQYNSTYRVVSVLTVLHQDWLNGKEYKCKVSNKALPAPIEKTISKAKGQPREPQVCTLPPSRDELTENQVSLTCLVKGFYPSDIAVEWESNGQPENNYKTTPPVLDSDGSFFLYSWLTVDKSRWQQGNVFSCSVMHEALHNHYTQKSLSLSPG light: DIQMTQSPSSVSASVGDRVTITCRASQGISSWLAWYQQKPGKAPKLLIYAASSLQSGVPSRFSGSGSGTDFTLTISSLQPEDFATYYCQQGVSFPRTFGGGTKVEIKRTVAAPSVFIFPPSDEQLKSGTASVVCLLNNFYPREAKVQWKVDNALQSGNSQESVTEQDSKDSTYSLSSTLTLSKADYEKHKVYACEVTHQGLSSPVTKSFNRGEC	0.35
				6010	6060	204	1010	178	5.2	1400	1.9	680	770 nM and 783 nM and 788 nM	AB0192 TriNKET (other, the condition stands under assay; also called AB0192 Lot AB0192-005) EVQLVESGGGVVQPGGSLRLSCAASGFTFNAFGMHWVRQAPGKCLEWVAFISSGSTSIYYANTVKGRFTISRDNSKNTLYLQMNSLRAEDTAVYYCARDGYPTGGAMDYWGQGTSVTVSSGGGGSGGGGSGGGGSGGGGSDIQMTQSPSSLSASVGDRVTITCKASQDIYNYLSWFQQKPGKAPKPLIYRANILVSGVPSRFSGSGSGQDYTFTISSLQPEDIATYYCLQFDAFPFTFGCGTKLEIKGSDKTHTCPPCPAPELLGGPSVFLFPPKPKDTLMISRTPEVTCVVVDVSHEDPEVKFNWYVDGVEVHNAKTKPREEQYNSTYRVVSVLTVLHQDWLNGKEYKCKVSNKALPAPIEKTISKAKGQPREPRVYTLPPCRDELTKNQVSLTCLVKGFYPSDIAVEWESNGQPENNYKTTPPVLVSDGSFTLYSKLTVDKSRWQQGNVFSCSVMHEALHNHYTQKSLSLSPG heavy: EVQLVESGGGLVKPGGSLRLSCAASGFTFSSYSMNWVRQAPGKGLEWVSSISSSSSYIYYADSVKGRFTISRDNAKNSLYLQMNSLRAEDTAVYYCARGAPIGAAAGWFDPWGQGTLVTVSSASTKGPSVFPLAPSSKSTSGGTAALGCLVKDYFPEPVTVSWNSGALTSGVHTFPAVLQSSGLYSLSSVVTVPSSSLGTQTYICNVNHKPSNTKVDKKVEPKSCDKTHTCPPCPAPELLGGPSVFLFPPKPKDTLMISRTPEVTCVVVDVSHEDPEVKFNWYVDGVEVHNAKTKPREEQYNSTYRVVSVLTVLHQDWLNGKEYKCKVSNKALPAPIEKTISKAKGQPREPQVCTLPPSRDELTENQVSLTCLVKGFYPSDIAVEWESNGQPENNYKTTPPVLDSDGSFFLYSWLTVDKSRWQQGNVFSCSVMHEALHNHYTQKSLSLSPG light: DIQMTQSPSSVSASVGDRVTITCRASQGISSWLAWYQQKPGKAPKLLIYAASSLQSGVPSRFSGSGSGTDFTLTISSLQPEDFATYYCQQGVSFPRTFGGGTKVEIKRTVAAPSVFIFPPSDEQLKSGTASVVCLLNNFYPREAKVQWKVDNALQSGNSQESVTEQDSKDSTYSLSSTLTLSKADYEKHKVYACEVTHQGLSSPVTKSFNRGEC	
